Measured values reported in the supplement of paper PMC12042874.
± gives the uncertainty stated by the source.

Test: amyloid nucleation score (Sup35N fusion, yeast selection) (log enrichment); library NNK2; higher = more nucleation; inactive = no reads after selection
Procedure, shortened: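 Output and input plasmid inserts were sequenced by Illumina after psi-negative yeast carrying Sup35N fused to peptides of 20 random codons had been induced 24 hours with 100 μM copper sulfate and grown 7 days at 30°C on medium lacking adenine and uracil. The nucleation score is the DiMSum log enrichment of output over input reads, centred on the mode score of non-aggregating sequences. Sequences with under 100 input reads were excluded.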

| Substance | amyloid nucleation score |
| --- | --- |
| PLDLYSVSIISLFEYIGVVR | -0.948 ± 1 |
| PLDTYLWAYLLPWWSLCTSI | inactive |
| PLMRGECGALLRLMFNTVS | inactive |
| PLNGIRFWSDVNLSRDGSSM | -0.025 ± 1.1 |
| PLSLYNFIFYNAEVPYVVVT | 1.84 ± 0.1 |
| PLYLYA | 4.28 ± 0.078 |
| PMFCFCPLCLWHKDCISINS | 8.227 ± 0.078 |
| PMSYLVWVSDFYLLRGGS | 0.019 ± 1.1 |
| PMVDRMMDASRWLPLDY | 0.109 ± 0.45 |
| PMVYRYKGRHIN | -1.27 ± 0.62 |
| PMWRVFAFYRWVALMSLTRI | inactive |
| PNDLLHLSRLIQDMWMINFN | inactive |
| PNFRVVFCLRSV | 9.978 ± 0.024 |
| PNPLSMLRLYRNKASVFSIK | 0.745 ± 0.41 |
| PPLLSISYKRRRVMFHFHVF | inactive |
| PPVVVSTSIWSRLCSYV | 0.151 ± 0.35 |
| PPYALDVTFVMRPKLSSR | 1.21 ± 0.23 |
| PRHSSSPALILWNYPNLTGI | -0.708 ± 0.37 |
| PRLGWHVLLVQIAVG | 2.94 ± 0.085 |
| PRMGFNDPARLGG | -1.34 ± 0.76 |
| PRRMNRGYQNDYFISTVFSV | -0.711 ± 0.64 |
| PRRNWMLVCTIIFVWNEKEY | 0.034 ± 1.1 |

| Substance | amyloid nucleation score |
| --- | --- |
| PRRYLTIPLSFFLHNSIIGI | inactive |
| PSDSECISCSCLDRWYRVFE | 2.94 ± 0.12 |
| PSLFTVFNVRLFQE | 4.12 ± 0.072 |
| PSVGYSITWGNILLYRIGFR | -1.19 ± 1 |
| PSVRTYTV | 4.67 ± 0.054 |
| PSVVVSNTYIGSPGYKRIWF | 7.844 ± 0.071 |
| PSWAELRVAYLLCGSGQPG | 1.43 ± 0.19 |
| PSYRCK | inactive |
| PTCMLCA | 0.868 ± 0.44 |
| PTCSNHCFFYLNHTN | 3.66 ± 0.12 |
| PTLTSIELSSTPRIRFWDSA | 0.122 ± 0.26 |
| PTPYKGRLLFPHHSGLYLIG | -1.23 ± 1.1 |
| PTRFSLDHWFPSVHYYPRLY | -1.05 ± 1.1 |
| PTSDMWSCNNL | 0.961 ± 0.81 |
| PVDVIHSRFVTGHFD | -0.853 ± 0.78 |
| PVFAFQYLSLCKWDLF | -0.976 ± 1 |
| PVKIGMFPVGRWQFKDQFGF | -0.704 ± 0.44 |
| PVLVGESHSIGL | 0.863 ± 0.24 |
| PVNWGQGITTKALWYMTLRF | -0.417 ± 1.1 |
| PVSALAVFRCLMYSCFCGDL | 6.172 ± 0.035 |
| PVYMFKYLVTLIWPHSKATF | 0.102 ± 0.34 |
| PWIAGCNMRTNWFNILNCPV | -0.583 ± 0.38 |

| Substance | amyloid nucleation score |
| --- | --- |
| PYTSSLLLQDRVLARGAYCR | 1.25 ± 0.36 |
| PYVHVYLWQSLKALVYLTCY | inactive |
| PYVTFITLCSAFKYVYKCWY | 5.448 ± 0.047 |
| PYYCMSYLAPWCPDELRAS | inactive |
| QAFVNFNIIYDV | 5.959 ± 0.053 |
| QALQFIVSQRL | 3.59 ± 0.11 |
| QCDVSRGAFEGFPYVYMEMW | -1.4 ± 0.62 |
| QCGRKFFDNRGGGLITPHPV | 0.107 ± 0.42 |
| QCQRLSWRCMWCGMSLYQYD | 3.98 ± 0.048 |
| QCTHPGLVVIYRSLAKDYLS | -0.285 ± 0.48 |
| QCVTSCCSSHEWHSTRQMIF | -0.502 ± 0.46 |
| QDMLWVPCNSGYRTQ | 0.627 ± 0.47 |
| QELYSDLPRPSGSPLQLWAK | -0.246 ± 0.76 |
| QFIEMEKIDVVFQEYIGEEG | -0.265 ± 0.41 |
| QFLTLCSKSNVRTCYSHSCN | 2.75 ± 0.19 |
| QFRTICKLWA | -0.099 ± 0.42 |
| QFSLAVSTLSL | 1.48 ± 0.27 |
| QGDWVEGV | 0.144 ± 0.79 |
| QGFVPHRSIWHTSNLSDWFM | inactive |
| QGGFMIFDRITGGLRVMNGL | 0.263 ± 0.23 |
| QGILGSFIGKRCGFTRLKTL | inactive |
| QHRFFQYYRS | -1.5 ± 0.64 |

| Substance | amyloid nucleation score |
| --- | --- |
| QHVFKVVSVALIMRCYDCGI | 1.64 ± 0.11 |
| QHYRSYTSILVCSYFYFDAQ | 3.12 ± 0.12 |
| QICNARFLLLLRTQALEQCA | 0.499 ± 0.56 |
| QIFKDSWSNIFRVYSCAVGM | 4.33 ± 0.062 |
| QIKRQGHLESPSRQR | 0.128 ± 0.37 |
| QIPCCWGPYVWSRAMGCSLE | 1.78 ± 0.15 |
| QIPNILVGNDMICVKKVLNW | 2.97 ± 0.051 |
| QKDLVSRGQYEVIVDSGTLG | 4.446 ± 0.035 |
| QKEENSWPGLIRCNLGVREG | 0.092 ± 0.22 |
| QKHAYAWLTPF | 1.54 ± 0.21 |
| QKNLEGLPEVEGNRRRCVVR | 0.033 ± 0.52 |
| QKRPVDIVPDHVWLWTR | 0.114 ± 0.55 |
| QKYLYQGCHLI | -1.24 ± 0.32 |
| QLDGWELATHRWCVILYVGC | -0.471 ± 0.48 |
| QLFHAWTTWPSGDHNIAWRY | 3.3 ± 0.14 |
| QLFRCGRWGLLFSAAFFYLV | 0.264 ± 0.8 |
| QLGRYLCHTIFKHRLYICTW | 0.113 ± 1.1 |
| QLHLTEVLFQS | 0.154 ± 0.22 |
| QLIMS | inactive |
